Test results: IntAct's records for PubMed 24525233

B1: Transcription cofactor vestigial-like protein 4 (Homo sapiens), Q14135 (parent)
chain: METPLDVLSRAASLVHADDEKREAALRGEPRIQTLPVASALSSHRTGPPPISPSKRKFSMEPGDEDLDCDNDHVSKMSRIFNPHLNKTANGDCRRDPRERSRSPIERAVAPTMSLHGSHLYTSLPSLGLEQPLALTKNSLDASRPAGLSPTLTPGERQQNRPSVITCASAGARNCNLSHCPIAHSGCAAPGPASYRRPPSAATTCDPVVEEHFRRSLGKNYKEPEPAPNSVSITGSVDDHFAKALGDTWLQIKAAKDGASSSPESASRRGQPASPSAHMVSHSHSPSVVS

Variants of: B1
Settings: with tead4_human TEAD4, Q15561
tead4_human TEAD4, Q15561, sequence (Q15561 whole entry): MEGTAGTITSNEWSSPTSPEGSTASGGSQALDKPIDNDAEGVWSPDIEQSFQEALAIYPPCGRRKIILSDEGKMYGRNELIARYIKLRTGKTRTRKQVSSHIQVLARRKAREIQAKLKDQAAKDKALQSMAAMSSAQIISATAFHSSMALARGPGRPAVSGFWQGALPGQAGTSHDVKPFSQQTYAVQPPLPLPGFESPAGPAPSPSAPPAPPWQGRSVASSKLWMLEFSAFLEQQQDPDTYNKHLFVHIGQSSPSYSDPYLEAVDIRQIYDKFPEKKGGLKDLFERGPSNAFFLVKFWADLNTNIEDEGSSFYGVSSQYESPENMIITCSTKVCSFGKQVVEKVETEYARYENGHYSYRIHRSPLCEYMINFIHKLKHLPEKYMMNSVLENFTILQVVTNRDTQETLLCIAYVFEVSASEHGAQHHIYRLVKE

Row | effect of a mutation on the interaction | Variant
1 | disrupting interaction | METPLDVLSRAASLVHADDEKREAALRGEPRIQTLPVASALSSHRTGPPPISPSKRKFSMEPGDEDLDCDNDHVSKMSRIFNPHLNKTANGDCRRDPRERSRSPIERAVAPTMSLHGSHLYTSLPSLGLEQPLALTKNSLDASRPAGLSPTLTPGERQQNRPSVITCASAGARNCNLSHCPIAHSGCAAPGPASYRRPPSAATTCDPVVEEAARRSLGKNYKEPEPAPNSVSITGSVDDAAAKALGDTWLQIKAAKDGASSSPESASRRGQPASPSAHMVSHSHSPSVVS [H212A;F213A;H240A;F241A]
2 | decreasing interaction | METPLDVLSRAASLVHADDEKREAALRGEPRIQTLPVASALSSHRTGPPPISPSKRKFSMEPGDEDLDCDNDHVSKMSRIFNPHLNKTANGDCRRDPRERSRSPIERAVAPTMSLHGSHLYTSLPSLGLEQPLALTKNSLDASRPAGLSPTLTPGERQQNRPSVITCASAGARNCNLSHCPIAHSGCAAPGPASYRRPPSAATTCDPVVEEHFRRSLGKNYKEPEPAPNSVSITGSVDDAFAKALGDTWLQIKAAKDGASSSPESASRRGQPASPSAHMVSHSHSPSVVS [H240A]
3 | decreasing interaction | METPLDVLSRAASLVHADDEKREAALRGEPRIQTLPVASALSSHRTGPPPISPSKRKFSMEPGDEDLDCDNDHVSKMSRIFNPHLNKTANGDCRRDPRERSRSPIERAVAPTMSLHGSHLYTSLPSLGLEQPLALTKNSLDASRPAGLSPTLTPGERQQNRPSVITCASAGARNCNLSHCPIAHSGCAAPGPASYRRPPSAATTCDPVVEEHFRRSLGKNYKEPEPAPNSVSITGSVDDAAAKALGDTWLQIKAAKDGASSSPESASRRGQPASPSAHMVSHSHSPSVVS [H240A;F241A]
4 | decreasing interaction | METPLDVLSRAASLVHADDEKREAALRGEPRIQTLPVASALSSHRTGPPPISPSKRKFSMEPGDEDLDCDNDHVSKMSRIFNPHLNKTANGDCRRDPRERSRSPIERAVAPTMSLHGSHLYTSLPSLGLEQPLALTKNSLDASRPAGLSPTLTPGERQQNRPSVITCASAGARNCNLSHCPIAHSGCAAPGPASYRRPPSAATTCDPVVEEHFRRSLGKNYKEPEPAPNSVSITGSVDDHFAKAAGDTWLQIKAAKDGASSSPESASRRGQPASPSAHMVSHSHSPSVVS [L245A]

Variants of: B1
Settings: with tead4_human TEAD4, Q15561
Remark: another data set of the same source

Row | effect of a mutation on the interaction | Variant
5 | decreasing interaction | METPLDVLSRAASLVHADDEKREAALRGEPRIQTLPVASALSSHRTGPPPISPSKRKFSMEPGDEDLDCDNDHVSKMSRIFNPHLNKTANGDCRRDPRERSRSPIERAVAPTMSLHGSHLYTSLPSLGLEQPLALTKNSLDASRPAGLSPTLTPGERQQNRPSVITCASAGARNCNLSHCPIAHSGCAAPGPASYRRPPSAATTCDPVVEEHFRRSLGKNYKEPEPAPNSVSITGSVDDHFAKALGDTALQIKAAKDGASSSPESASRRGQPASPSAHMVSHSHSPSVVS [W249A]
